Reference: US20220062371

Assays:
[1] = system: Compound 1, AF-Arg-Lys(PEG4-Mal-Cys-Ac)-Phe-OH
[2] = system: Compound 10, Arg-PEG4-Phe-Arg-Dab(CO-CPT)-Phe-OH
[3] = system: Compound 11, Arg-PEG4-Phe-Arg-Ser(CO-CPT)-Phe-OH
[4] = system: Compound 12, Ac-Cys-Mal-PEG4-Phe-Lys-Lys(Mal-DM1)-Phe-OH
[5] = system: Compound 13, Ac-Cys-Mal-PEG4-Phe-Lys-Lys(AF)-Phe-OH
[6] = system: Compound 15, Arg-PEG4-Phe-Arg-Glu(Sar-OCPT)-Arg-OH
[7] = system: Compound 16, Arg-PEG4-Phe-Arg-Glu(Sar-OCPT)-Arg-Phe-Arg-OH
[8] = system: Compound 17, Arg-PEG4-Phe-Arg-[Glu(Sar-OCPT)-Phe]2-OH
[9] = system: Compound 18, Arg-PEG4-[Phe-Arg-Glu(Sar-OCPT)-Arg]2-OH
[10] = system: Compound 19, AF-Cit-Lys(PEG4-Mal-Cys-Ac)-Phe-OH
[11] = system: Compound 22, DM1-Mcc-Phe-Cit-Lys(PEG5-Ma-Cys-Ac)-Tyr-OH
[12] = system: Compound 23, DM1-Mcc-Cit-Lys(PEG5-Ma-Cys-Ac)-Tyr-OH
[13] = system: Compound 27, Ac-Cys-Ma-PEG5-Phe-Cit-Lys(Mcc-DM1)-Tyr-OH
[14] = system: Compound 28, Ac-Cys-Mal-PEG4-Phe-Lys-Lys(Mal-DM1)-Phe-Phe-Lys-OH
[15] = system: Compound 29, Ac-Cys-Mal-PEG4-[Phe-Lys-Lys(Mal-DM1)-Phe]2-OH
[16] = system: Compound 3, AF-Arg-Phe-Lys(PEG4-Mal-Cys-Ac)-OH
[17] = system: Compound 30, Ac-Cys-Mal-PEG4-Phe-Arg-Lys(Mal-DM1)-Arg-Lys(AF)-Phe-OH
[18] = system: Compound 31, AF-Cit-Lys(Mal-DM1)-Phe-Lys(PEG4-Mal-Cys-Ac)-Phe-OH
[19] = system: Compound 32, Ac-Cys-Mal-[PEG5-Lys(AF-Cit-Lys(Y)-Phe-OH)]2-Gly-NH2
[20] = system: Compound 5, DM1-Mal-Phe-Lys-Lys(PEG4-Mal-Cys-Ac)-Phe-OH
[21] = system: Compound 6, DM1-Mal-Phe-Cit-Lys(PEG4-Mal-Cys-Ac)-Phe-OH
[22] = system: Compound 7, DM1-Mal-Phe-Cit-Phe-Lys(PEG4-Mal-Cys-Ac)-OH
[23] = system: Compound 8, Arg-PEG4-Phe-Arg-Glu(Sar-OCPT)-Phe-OH
[24] = system: Compound 9, Arg-PEG4-Phe-Arg-Dap(CO-CPT)-Phe-OH

## Recombinant human Cathepsin B
[1]
  T1/2 Compound (min), Cat B-induced cleavage: 1.5 min
[2]
  T1/2 Compound (min), Cat B-induced cleavage: 0.9 min
[3]
  T1/2 Compound (min), Cat B-induced cleavage: 2.2 min
[4]
  T1/2 Compound (min), Cat B-induced cleavage: 1.5 min
[5]
  T1/2 Compound (min), Cat B-induced cleavage: 1.6 min
[6]
  Cat B-induced cleavage (in vitro enzymatic cleavage assay): Cat B-induced cleavage of compound 15 releases a second C-terminal dipeptide-drug unit H-Glu(Sar-OCPT)-Arg-OH
[7]
  Cat B-induced cleavage (in vitro enzymatic cleavage assay): compound 16 as a first intermediate, which is in turn rapidly cleaved via exo-Cat B mechanism to release compound 15 as a second intermediate
[8]
  Cat B-induced cleavage (in vitro enzymatic cleavage assay): Cat B-induced cleavage of compound 17 rapidly released C-terminal dipeptide-drug unit Glu(Sar-OCPT)-Phe-OH and compound 8 as an intermediate
[9]
  Cat B-induced cleavage (in vitro enzymatic cleavage assay): Cat B-induced cleavage of compound 18 rapidly released the C-terminal dipeptide-drug unit H-Glu(Sar-OCPT)-Arg-OH and compound 16 as a first intermediate
[10]
  T1/2 Compound (min), Cat B-induced cleavage: 1.1 min
[11]
  T1/2 Compound (min), Cat B-induced cleavage: 0.06 min
[12]
  T1/2 Compound (min), Cat B-induced cleavage: 0.0004 min
[13]
  T1/2 Compound (min), Cat B-induced cleavage: 0.06 min
[14]
  T1/2 Compound (min), Cat B-induced cleavage: 0.3 min
[15]
  T1/2 Compound (min), Cat B-induced cleavage: 2.4 min
[16]
  T1/2 Compound (min), Cat B-induced cleavage: 1.4 min
[17]
  T1/2 Compound (min), Cat B-induced cleavage: 1.1 min
[18]
  T1/2 Compound (min), Cat B-induced cleavage: 1.08 min
[19]
  T1/2 Compound (min), Cat B-induced cleavage: 0.98 min
[20]
  T1/2 Compound (min), Cat B-induced cleavage: 0.6 min
[21]
  T1/2 Compound (min), Cat B-induced cleavage: 0.3 min
[22]
  T1/2 Compound (min), Cat B-induced cleavage: 1.2 min
[23]
  Cat B-induced cleavage (in vitro enzymatic cleavage assay): compound 8 was rapidly cleaved to release the C-terminal dipeptide-drug unit H-Glu(Sar-OCPT)-Phe-OH
  T1/2 Compound (min), Cat B-induced cleavage: 2.2 min
[24]
  T1/2 Compound (min), Cat B-induced cleavage: 4.5 min
